Measured values as given in patent US20190338048A1.
Like-named read-outs stand apart in the source and are kept apart here. Each block holds one substance with its values, some of them ahead of it.

Assays:
Test in all cases: SMCA: H1, L1, H2, L2 co-expressed, protein A, LC-MS
[1] = target: CR8071 lambda light chain S122D_E124Q_T131R (L1 of design 3974, system C)
[2] = target: CR8071 lambda light chain S122D_K129T_S176E_Y178E (L1 of design 3967, system C)
[3] = target: CR8071 lambda light chain L1 S122D_Y178K (design 3954, System C)
[4] = target: CR8071 lambda light chain L1 S122D_K129T_S176E_Y178E (designs 3951 and 3967, System C)
[5] = target: CR8071 lambda light chain L1 S122D_K129T_S176E_Y178E (designs 3951 and 3967, System C); remark: listed apart in the source
[6] = target: CR8071 lambda light chain L1 Y178K (design 3957, System C)
[7] = target: Design 3890 L2: SGN-CD19a kappa light chain S121K_Q124R_T178R
[8] = target: Design 3898 L1: CR8071 lambda light chain K129T_Y178E_S180E
[9] = target: Design 3898 L2: SGN-CD19a kappa light chain Q124R_T178R
[10] = target: Design 3898 L2: SGN-CD19a kappa light chain Q124R_T178R; remark: listed apart in the source
[11] = target: Design 3931 L2: SGN-CD19a kappa light chain V133G_S176D
[12] = target: Design 3931 L2: SGN-CD19a kappa light chain V133G_S176D; remark: listed apart in the source
[13] = target: Design 3947 L1: CR8071 lambda light chain K129T_Y178D
[14] = target: Design 3951 L1: CR8071 lambda light chain S122D_K129T_S176E_Y178E
[15] = target: Design 3954 L1: CR8071 lambda light chain S122D_Y178K
[16] = target: Design 3957 L2: SGN-CD19a kappa light chain Q124E_V133D_T178E
[17] = target: Design 3957 L2: SGN-CD19a kappa light chain Q124E_V133D_T178E; remark: listed apart in the source
[18] = target: SGN-CD19a kappa light chain L2 S121K_S131K_S176K (design 3951)
[19] = target: SGN-CD19a kappa light chain L2 Q124E_V133D_T178E (design 3957, Systems B and C)
[20] = target: SGN-CD19a kappa light chain L2 Q124E_V133D_T178E (design 3957, Systems B and C); remark: listed apart in the source
[21] = target: SGN-CD19a kappa light chain L2 S121K_S176E_T178E (design 3954, Systems B and C)
[22] = target: SGN-CD19a kappa light chain L2 S121K_S176E_T178E (design 3954, Systems B and C); remark: listed apart in the source
[23] = target: SGN-CD19a kappa light chain V133G_L135W_S176D_T180E (L2 of design 3987, systems B and C)
[24] = target: SGN-CD19a kappa light chain V133G_L135W_S176D_T180E (L2 of design 3987, systems B and C); remark: listed apart in the source
[25] = target: SGN-CD19a kappa light chain S121K_Q124R_T178R (L2 of design 3967, systems B and C)
[26] = target: SGN-CD19a kappa light chain S121K_Q124R_T178R (L2 of design 3967, systems B and C); remark: listed apart in the source
[27] = target: SGN-CD19a kappa light chain Q124E_V133D_L135W (L2 of design 3972, systems B and C)
[28] = target: SGN-CD19a kappa light chain Q124E_V133D_T180D (L2 of design 3971, systems B and C)
[29] = target: SGN-CD19a kappa light chain Q124E_V133D_L135W (L2 of design 3972, systems B and C); remark: listed apart in the source
[30] = target: SGN-CD19a kappa light chain Q124E_V133D_T180D (L2 of design 3971, systems B and C); remark: listed apart in the source
[31] = target: SGN-CD19a kappa light chain S121K_Q124E_V133D (L2 of design 3974, systems B and C)
[32] = target: SGN-CD19a kappa light chain S121K_Q124E_V133D (L2 of design 3974, systems B and C); remark: listed apart in the source
[33] = target: SGN-CD19a kappa light chain Q124E_V133D_L135A (L2 of design 3980, system B)
[34] = target: SGN-CD19a kappa light chain S121K_V133I_S176D_T178E (L2 of design 3997, system B)

Substance: CR8071 heavy chain A125R_L143D_K145T (H1 of design 3974, system C)
% H1L1 Pairing [1]: 59.9%
Change in % H1L1 Pairing with respect to wild type [1]: 11.5%

Substance: CR8071 heavy chain A125R_S188K (H1 of design 3967, system C)
% H1L1 Pairing [2]: 96.7%
Change in % H1L1 Pairing with respect to wild type [2]: 28.6%

Substance: CR8071 heavy chain H1 A125R_K145T_S188E (design 3954, System C)
% H1L1 Pairing [3]: 89%
Change in % H1L1 Pairing with respect to wild type [3]: 40.6%

Substance: CR8071 heavy chain H1 K145T_S188E (design 3957, System C)
% H1L1 Pairing [6]: 87.2%
Change in % H1L1 Pairing with respect to wild type [6]: 38.8%

Substance: Design 3898 H1: CR8071 heavy chain Q179K
% H1L1 Pairing [8]: 97.4%
Change in % H1L1 Pairing with respect to wild type [8]: 15.1%

Substance: Design 3931 H2: SGN-CD19a heavy chain L124R
% H2L2 Pairing [11]: 83.6%
Change in % H2L2 Pairing with respect to wild type [11]: 29.4%
% H2L2 Pairing [12]: 99.5%
Change in % H2L2 Pairing with respect to wild type [12]: 19.9%

Substance: Design 3947 H1: CR8071 heavy chain S188K
% H1L1 Pairing [13]: 91.3%
Change in % H1L1 Pairing with respect to wild type [13]: 23.2%

Substance: Design 3951 H1: CR8071 heavy chain A125R_S188K
% H1L1 Pairing [14]: 97.5%
Change in % H1L1 Pairing with respect to wild type [14]: 29.4%

Substance: SGN-CD19a heavy chain H2 K145T_S186E_K228D (design 3951)
% H2L2 Pairing [18]: 97.1%
Change in % H2L2 Pairing with respect to wild type [18]: 25.8%

Substance: SGN-CD19a heavy chain H2 L143R_S188K (design 3957, Systems B and C)
% H2L2 Pairing [19]: 99.7%
Change in % H2L2 Pairing with respect to wild type [19]: 20.1%
% H2L2 Pairing [20]: 85.4%
Change in % H2L2 Pairing with respect to wild type [20]: 31.2%

Substance: SGN-CD19a heavy chain L143E_K145T_Q179E_K228D (H2 of design 3967, systems B and C)
% H2L2 Pairing [25]: 100%
Change in % H2L2 Pairing with respect to wild type [25]: 28.7%
% H2L2 Pairing [26]: 98.6%
Change in % H2L2 Pairing with respect to wild type [26]: 44.4%

Substance: SGN-CD19a heavy chain L143R (H2 of designs 3971 and 3972, systems B and C)
% H2L2 Pairing [27]: 99.8%
Change in % H2L2 Pairing with respect to wild type [27]: 20.2%
% H2L2 Pairing [28]: 99.8%
Change in % H2L2 Pairing with respect to wild type [28]: 20.2%
% H2L2 Pairing [29]: 99.7%
Change in % H2L2 Pairing with respect to wild type [29]: 45.5%
% H2L2 Pairing [30]: 99.3%
Change in % H2L2 Pairing with respect to wild type [30]: 45.1%

Substance: SGN-CD19a heavy chain L143R_K228D (H2 of design 3974, systems B and C)
% H2L2 Pairing [31]: 99.8%
Change in % H2L2 Pairing with respect to wild type [31]: 20.2%
% H2L2 Pairing [32]: 92.6%
Change in % H2L2 Pairing with respect to wild type [32]: 38.4%

Substance: SGN-CD19a heavy chain S188K_K228D (H2 of design 3997, system B)
% H2L2 Pairing [34]: 53%
Change in % H2L2 Pairing with respect to wild type [34]: -1.2%

Second part, the substance after the results:

% H1L1 Pairing [4]: 96.7%
Change in % H1L1 Pairing with respect to wild type [4]: 28.6%
% H1L1 Pairing [5]: 97.5%
Change in % H1L1 Pairing with respect to wild type [5]: 29.4%
Substance: CR8071 heavy chain H1 A125R_S188K (designs 3951 and 3967, System C)

% H2L2 Pairing [7]: 88.5%
Change in % H2L2 Pairing with respect to wild type [7]: 17.2%
Substance: Design 3890 H2: SGN-CD19a heavy chain L143E_K145T_K228D

% H2L2 Pairing [9]: 74.5%
Change in % H2L2 Pairing with respect to wild type [9]: 36.9%
% H2L2 Pairing [10]: 95.2%
Change in % H2L2 Pairing with respect to wild type [10]: 35.3%
Substance: Design 3898 H2: SGN-CD19a heavy chain L143E_K145T_Q179E

% H1L1 Pairing [15]: 89%
Change in % H1L1 Pairing with respect to wild type [15]: 40.6%
Substance: Design 3954 H1: CR8071 heavy chain A125R_K145T_S188E

% H2L2 Pairing [16]: 85.4%
Change in % H2L2 Pairing with respect to wild type [16]: 31.2%
% H2L2 Pairing [17]: 99.7%
Change in % H2L2 Pairing with respect to wild type [17]: 20.1%
Substance: Design 3957 H2: SGN-CD19a heavy chain L143R_S188K

% H2L2 Pairing [21]: 98.7%
Change in % H2L2 Pairing with respect to wild type [21]: 19.1%
% H2L2 Pairing [22]: 61.8%
Change in % H2L2 Pairing with respect to wild type [22]: 7.6%
Substance: SGN-CD19a heavy chain H2 S188K_K228D (design 3954, Systems B and C)

% H2L2 Pairing [23]: 99.3%
Change in % H2L2 Pairing with respect to wild type [23]: 19.7%
% H2L2 Pairing [24]: 98.1%
Change in % H2L2 Pairing with respect to wild type [24]: 43.9%
Substance: SGN-CD19a heavy chain L124R_S186K (H2 of design 3987, systems B and C)

% H2L2 Pairing [33]: 82.6%
Change in % H2L2 Pairing with respect to wild type [33]: 28.4%
Substance: SGN-CD19a heavy chain L143R_V190F (H2 of design 3980, system B)
